Article doi:10.1101/2025.07.14.664640 (bioRxiv, 2025)

Target: T1, MBP-HS1BP3 full length (UniProt Q53T59 1-392)
T1 sequence (looked up): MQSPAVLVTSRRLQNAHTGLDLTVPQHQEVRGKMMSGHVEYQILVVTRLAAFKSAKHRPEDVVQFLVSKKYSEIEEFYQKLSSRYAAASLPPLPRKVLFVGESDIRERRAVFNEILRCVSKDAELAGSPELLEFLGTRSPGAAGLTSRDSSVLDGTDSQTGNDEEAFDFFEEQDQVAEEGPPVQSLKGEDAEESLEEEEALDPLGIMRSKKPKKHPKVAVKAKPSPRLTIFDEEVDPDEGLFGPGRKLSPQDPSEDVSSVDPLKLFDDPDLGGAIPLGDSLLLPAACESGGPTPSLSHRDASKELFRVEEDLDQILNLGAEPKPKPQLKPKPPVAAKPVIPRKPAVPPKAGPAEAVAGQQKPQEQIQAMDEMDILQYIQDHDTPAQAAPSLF
Assay: pull-down

B1: GST-SH3 (SH3 domain of cortactin fused to GST) (domain or fragment)
chain: not shown
Question: Does B1 bind?
Answer: binds
